This is an account of results in article doi:10.1101/2024.09.06.611644 (bioRxiv, 2024).

The target in the test is wild-type AC fused to GFP (AC-GFP) (GFP moiety: Aequorea victoria …, UniProt P42212 = GFP). In words: two-hybrid.

B1: CaM-V9A fusion expressed from pK1Cam-V9A or pK2Cam-V9A (VHH)
VHH: DVQLQESGGGSVQAGGSLRLSCAASGDTFSSYSMAWFRQAPGKECELVSNILRDGTTTYAGSVKGRFTISRDDAKNTVYLQMVNLKSEDTARYYCAADSGTQLGYVGAVGLSCLDYVMDYWGKGTQVTVSS
B1: the binding result is on record as “binds”.
